Test results: a protein production outcome set (Wang et al. 2014)

Assay: label from the status in PepcDB records

Sequence	protein production
MSDRLANQIAAGEVVQRPASVAKELIENALDAGASSIEVLLKDAGSTLVQVIDDGCGMGPGDAERCFERHATSKLRSVDDLERIRTLGFRGEALASIAAVAQVTLKTKRVEDDAGTLVRVEGGEQVEKRPCAIPNGTSVAVRNLFFNVPARRNFLKTPATELKHLTQTVQSLALANPDTAVRLEHDGHEHYDLPAAPDSDWHAATRARILGLFGGDHEDELVAVEDESSDLRLRGFVGAPSFHRKTRGEQFLFVNGRAVTDRYLSHAVKKAYGELVPDGAFPFFALFLAMNPERVDVNVHPQKEEVKFDDQSGIYGFLRSAVRRALGRVHVSPQMDDGDDEADNEEDSPGPESDGTGSGGHAVSGDGTSSPRPTPTSFQPQRSSGDATDSSGRSSSGPSPQSPKPRPENPSVSPGDQSDALYRRPDGGDESSPGDAPASPPHREGGSSSTSAADEAERSGRRPVWGLHDTYVVTPTETGMMLVDQRAAHLRVLYERARAHLRDQQGASQRLLFPHTVDLSPAEVELLDELRDDLDALGFELERLSGRTVSVRGVPADVPDGNEDTILEELLEQYRSAQDAVEDERREHLAKTMAQRSAVDRGQPLSEEERRALLDDLFDCEMPYADPTGTPTIVKLSMEELADRFGR	failed
MSPAPPRGPGMSQARSLSLILAAVLASLLPVTGSQAGEPGRALWVMSYNIRYDNPDDRPDWRTRRGPMVEQIRFFAPDILGLQEALPAMVDQLAGDLAGYAHYGVGRDDGARLGETTTIFYRAERFQRVLARTYWCSPTPDTPSKAYDAALPRTFTRLVLKDRITGVTFDVRNAHLDHVGAESRAKCAAQILALAPWPKARLITLGDFNSAPEEAPYRLLTAPEGPYRDARAAASSVFSPSTGTFNRFTPASIGPPIDYIFVDRRLNVARFAVPTDVADAGVISDHFPVLAEITLSPKTRAKAKP	failed
MIFIESITNSVPWVNSLALTLNSPLLATTNEAENAPIVLTGVLLTLVVIYLASKIGGELSRLVDLPPVLGELVAGVLVGASALHLVVFPESGAVAGDSVIMTILQFINNLTPDAVTAIFQSQSEAVSVLAELGVIILLFEIGLESDLKELQKVGYQATIVACVGVAVPFTAGTVGLISIFHAPVIPAIFAGAALTATSIGITSKVLSELGQLKSREGQIIVGAAVIDDILGIIVLAVVASLAKTGEVDVLNVIYLIVSATVFLIGSILLGKYFNQSFVAIANKLQTRGNLIIPAFIFAFFMAFLGNAIHLEAILGAFAAGLVLDETDKRKELDEQVKPIADILVPIFFVTVGAKVDLSVLNPVVPGNREGLIIATFLIVVAIIGKIVTGWAVFGQPGINRLAVGVGMIPRGEVGLVFAGIGSASGALDKPLQAAIIIMVILTTFLAPPLLRFAFKQSEEIKELEKADLLG	failed
MAKALEQPFDVANIPGPKMATLLEKGKPVANMIKKAKRPLLIVGPDMTDEMFERVKKFVEKDITVVATGSAITRFIDAGLGEKVNYAVLHELTQFLLDPDWKGFDGQGNYDLVLMLGSIYYHGSQMLAAIKNFAPHIRALAIDRYYHPNADMSFGNLWKKEEDYLKLLDEILAEL	not failed
MSTAMYHLRVPQTEEELERYYQFRWEMLRKPLHQPKGSERDGWDALAHHQMVVDEEGNLVAVGRLYINADNEASIRFMAVHPSVQDKGLGTLMAMTLESVARQEGVKRVTCSAREDAVEFFAKLGFVNQGEITTPTTTPIRHFLMIKPVASLDDILHRGDWCGQLQQAWYEHIPLSEKMGVRIQQYTGQKFITTMPETGNQNPHHTVFAGSLFSLATLTGWGLIWLMLRERHLGGTIILADAHIRYSKPISGKPNAVADLGSLSGDLDRLARGKKARVQLQVELLGGETAGAIFEGIYIVLPLEHHHHHH	failed
MERIVMPANYVHTRTTPFWTKETAPASIWRRHLDAGTRQGVYPRLCVMQGTIRYYGYADETSPEPVETLTIEAGQFGVFPPEKWHRIEALSDDTLFNVDFYVDPKILIEGLEHHHHHH	failed
AKGSMIQFDAPDGKKANAYMVKASSPSTKYVFLIHEWWGLNDYIKKDADKLYADLGGNVNIMALDLYDGKVTANRDSAAAYMGAASATRIGSILNGAFMFAGDKAEIISMGWCFGGGWALQSSILAGNKSKGTIMYYGMTEKDPVKLAGLKGDVLGIFGSKDKWINPEMVAAFDKDLTAAGKKHTIKSFDADHAFANPSNPQFNKAYTEEAWGMSVAFIKKAFG	failed
MSVNTNEGSKNLWKDLPLELLSSVMTFLEIKDNVRASVVCKSWFEAAVSVRVIDKSPWLMYFPETKNTYDFYDPSNCKKYTMELPKSLVGFIVRYSKDGWLLMSQEDSSHFVLFNPFTMDVVALPFLHLFTYYQLVGFSSAPTSSECVVFTIKDYDPGHVTIRTWSPGQTMWTSMQVESQFLDVDHNNVVFSNGVFYCLNQRNHVAVFDPSLRTWNVLDVPPPRCPDDKSWNEGKFMVGYKGDILVIRTYENKDPLVFKLDLTRGIWEEKDTLGSLTIFVSRKSCESRTYVKDGMLRNSVYFPELCYNEKQSVVYSFDEGRYHLREHDLDWGKQLSSDNIWIEPPKNAFELV	failed
MPVVDIDPDELRRLTGHRSKDDDELRQDLFGLGIEYEGETEDGDFKLEFEADRLDRLSVEGIARSLRYHAGDDRGVDIPDTNAPEWAIDVTDVPADRPYVTGAVIRGVDLDADALDSLIQLQEKLHATMGRKRAKGAIGIHDLAMLKGDTVDGDGTAARSLTYTGIDPDGDTFVPLDDDAERTPADVLTEHPTGETYADLLADHDTYPAIYDDIGLFSFPPVINGRRTEVTTDSRELFVELTGTDQWTIDRMCAIICYALDARGATIEDVTVDYPDRELHRPDFAVRTKHVSHDRIETLLGVEFTTEAVVDLAERAGLDATPTDDGYDVEIPPYRVDVRHPVDVVDDLGRAYDFNDLTPRYPDVNTIGGRTESSRLERSVRQALVGLGFEDLLNFNMTSEAENFDRMRLTPDHDAVGAAQPATIAEPYSQDFTILRTWALPSLAMVLETNTHHAYPQDLAEVGFAAHADGDTQTGVAERRTVAAVLARNDASYEDAKARLQALCDEFAVALETPPTTHPSFIDGRAATIEIDGQPAGVIGELHPGVIVEHDVEVPVAGFEFELDALR	failed
MNRSDKWQQRVAQVAYRFNQQYQNQSLELPAEVQEMPIYREWISGILAGKIASPFWEMAQPQKNQHCLDIGCGVSFLIYPWRDWQAFFYGQDVSNVARDTLNSRGSQLNSKLFKGVELGAAHQLKYTLSYFDLAIATGFSCYFPLEYWTSVLQAVKRVLKPDGHFVFDILNAAHPQAEDWAVLETYLGAEVFLEPVTEWEKIINAAGAKVVGRQPGEFFDLYKLRLEHHHHHH	failed
MQLEPRINTFSMEAMFTFSSTFLYDSIVDSSRPILATSLLGCDVTDPERRATTACCICEETLSELHMTRPTQKVKAVSGPTRERHIIFSTCKPVL	failed
KRREIPLKVLVKAVLFACMLMRKTMASRVRVTILFATETGKSEALAWDLGALFSCAFNPKVVCMDKY	failed
MFPFTHVHAFNKGNEEVYMDVENGKNGEGSVFRMPLHYPRYSKEDYQDMPEWKLDRVLADYGLSTYGDLAHKRDFAIGAFLWISTRNPKLYQEKSINSKLKKDTKSAHA	failed
TPAVVERADADSQYEILVGGQRAGLTAYRDLGAQRVFFHTEIDEAFAGQGLASQLVQQALVDVRASGMRIVPVCPYVAKFLKRHDEFADITDPVTPEVLRWLEAQL	failed
MGVYPPSEDSFLIIEYASCSGKAIEIGCGTGIVSICFLKRGCDIEAVDISDLAVECAKDNASRNGLTLKVYRSDLFSGVSGTYDTILFNAPYIPVEGEDASWSGGRNLEVVSRFLGQAREHLSASGQIYIVLSDLTDNEGMFRMMGYDYFIIKKISFEFEAIVLYKLTLKALEHHHHHH	failed
MIGKRFFQTTSKKIAFAFDIDGVLFRGKKPIAGASDALKLLNRNKIPYILLTNGGGFSERARTEFISSKLDVDVSPLQIIQSHTPYKSLVNKYSRILAVGTPSVRGVAEGYGFQDVVHQTDIVRYNRDIAPFSGLSDEQVMEYSRDIPDLTTKKFDAVLVFNDPHDWAADIQIISDAINSENGMLNTLRNEKSGKPSIPIYFSNQDLLWANPYKLNRFGQGAFRLLVRRLYLELNGEPLQDYTLGKPTKLTYDFAHHVLIDWEKRLSGKIGQSVKQKLPLLGTKPSTSPFHAVFMVGDNPASDIIGAQNYGWNSCLVKTGVYNEGDDLKECKPTLIVNDVFDAVTKTLEKYA	not failed
MSSSGTSITCEVGLQLIVPDRAPVPLVARLDYSVDDPYAIRAAFHVGDDEPVEWIFARELLTVGIIRETGEGDVRIWPSQDGKERMVNIALSSPFGQARFHAQVAPLSEFLHRTYELVPAGQESDYIDIDAEIAEHLS	not failed
MILLTSVLAIVSVILLTLPLLEAYSLNSSLVGGAVSPGATYSYKMNAVLINFYHNNSISHLLGNFSFTTGYINITMENGYATFSVKLYGQPAGENVTLADSFVLKASDHSSLFESFFPSGLVEAGEFVNVFNNTGQYYGAASAFSSVNVGKGTLFSTSQMVKLINVPEQPSGYFENVSRELNANSVYYIESPSHSFLSHIVFTGNSTVISALLGSSSVSNVTLLYISLEKTDVAVETLNVMHYVMHYIAVVVILWILGVVYMISLYRRVSLKQRR	failed
MIEVAEIIAREIRRGKIVEIGVGFYLEVAKRLRESGIDILVVDINEKAINYARKQGIKGVVDDIFNPTLGIYKDAKAIYSIRPAPEMMKPLLDLARKLKIPLYIVPLTGDRTPNGMKLINYKGIPIYKWEP	not failed
MESIWRIATGQDPSREDYEGIEFWSNPERSGWLTKQGDYIKTWRRRWFVLKRGKLLWFKDQAAAGIRGSTPRGVISVGDCLTVKGAEDVVNKPFAFELSSGSYTMFFIADNEKEKEEWINSIGRSIVQHSRSVTDSEVLDYDHRR	failed
MGHHHHHHSHMPSYTVTVATGSQWFAGTDDYIYLSLVGSAGCSEKHLLDKPFYNDFERGAVDSYDVTVDEELGEIQLVRIEKRKYWLNDDWYLKYITLKTPHGDYIEFPCYRWITGDVEVVLRDGRAKLARDDQIHILKQHRRKELETRQKQYRWMEWNPGFPLSIDAKCHKDLPRDIQFDSEKGVDFVLNYSKAMENLFINRFMHMFQSSWNDFADFEKIFVKISNTISERVMNHWQEDLMFGYQFLNGCNPVLIRRCTELPEKLPVTTEMVECSLERQLSLEQEVQQGNIFIVDFELLDGIDANKTDPCTLQFLAAPICLLYKNLANKIVPIAIQLNQIPGDENPIFLPSDAKYDWLLAKIWVRSSDFHVHQTITHLLRTHLVSEVFGIAMYRQLPAVHPIFKLLVAHVRFTIAINTKAREQLICECGLFDKANATGGGGHVQMVQRAMKDLTYASLCFPEAIKARGMESKEDIPYYFYRDDGLLVWEAIRTFTAEVVDIYYEGDQVVEEDPELQDFVNDVYVYGMRGRKSSGFPKSVKSREQLSEYLTVVIFTASAQHAAVNFGQ	failed
MRKVQVLVQTRDGKKTVYEVDRLGTVASLKARIGQVMSVPMGFSRLSYKGRVLSNQSVLEDLGPNKSTLDLTWKPVVLTANQSSKLSKFGYGRIDDSEVMFTLIGGYQQREEYPGGLVNPPDDESQLNFNAGDDDDALEAQDMTGHDLSSIQTDDLSLKGQTEPELDCSIGSHGFSGSQEEGHE	failed
MTIRRLTPTPRAVDWGLFGAVATLLATGVATIFAGIPSSAWIIDLHALSGVVLTLLLPVKLRRVFHRVAPSRLTGTRVLSVGLAAVTLGALGTGVWWIFGGTLDLGPWGLFHLHVALGLLVPPLLLVHLRARFYSPAQATCGGRRDVLRYAGLVTAGALLWRVQGPVNDALDTAGADRRYTGSREEGTDDGNRFPVTSWVADDPDPVDAADWSLSVAGRVAHEASYVAGDLSPDATESAVLDCTSGWYSGHEWQGVRVGDLLDAADPDDAAAWVQFRSITGYRWSLPLSEARDAVLATHVDGERLAHGHGYPLRLVAPGRRGFQWVKWVESVRVSKRRELGEWLAIFVSGL	failed
